Square brackets hold non-standard residues; d marks the D form. Ends that are not written are not given here.
molecular target: T1, mouse ADAMTS7 (Mus musculus, UniProt Q68SA9, E373Q); assay: TMT10 TAILS N-terminomics, HUVEC experiment (process replicates, trypsin/AspN digest); type: cell-based, human; settings: HUVEC TAILS HC; log fold change of N-terminal peptide, Ad-mADAMTS7 EQ over Luc
T1 construct: Full-length mouse Adamts7 1-1857 (Uniprot Q68SA9, WT or E373Q catalytic mutant); expressed in transfected cells; host or cells: Human Coronary Artery Smooth Muscle Cells (HCA-SMC, Lonza), adenovirus 50 MOI
T1 sequence (Q68SA9 221-1657 E373Q): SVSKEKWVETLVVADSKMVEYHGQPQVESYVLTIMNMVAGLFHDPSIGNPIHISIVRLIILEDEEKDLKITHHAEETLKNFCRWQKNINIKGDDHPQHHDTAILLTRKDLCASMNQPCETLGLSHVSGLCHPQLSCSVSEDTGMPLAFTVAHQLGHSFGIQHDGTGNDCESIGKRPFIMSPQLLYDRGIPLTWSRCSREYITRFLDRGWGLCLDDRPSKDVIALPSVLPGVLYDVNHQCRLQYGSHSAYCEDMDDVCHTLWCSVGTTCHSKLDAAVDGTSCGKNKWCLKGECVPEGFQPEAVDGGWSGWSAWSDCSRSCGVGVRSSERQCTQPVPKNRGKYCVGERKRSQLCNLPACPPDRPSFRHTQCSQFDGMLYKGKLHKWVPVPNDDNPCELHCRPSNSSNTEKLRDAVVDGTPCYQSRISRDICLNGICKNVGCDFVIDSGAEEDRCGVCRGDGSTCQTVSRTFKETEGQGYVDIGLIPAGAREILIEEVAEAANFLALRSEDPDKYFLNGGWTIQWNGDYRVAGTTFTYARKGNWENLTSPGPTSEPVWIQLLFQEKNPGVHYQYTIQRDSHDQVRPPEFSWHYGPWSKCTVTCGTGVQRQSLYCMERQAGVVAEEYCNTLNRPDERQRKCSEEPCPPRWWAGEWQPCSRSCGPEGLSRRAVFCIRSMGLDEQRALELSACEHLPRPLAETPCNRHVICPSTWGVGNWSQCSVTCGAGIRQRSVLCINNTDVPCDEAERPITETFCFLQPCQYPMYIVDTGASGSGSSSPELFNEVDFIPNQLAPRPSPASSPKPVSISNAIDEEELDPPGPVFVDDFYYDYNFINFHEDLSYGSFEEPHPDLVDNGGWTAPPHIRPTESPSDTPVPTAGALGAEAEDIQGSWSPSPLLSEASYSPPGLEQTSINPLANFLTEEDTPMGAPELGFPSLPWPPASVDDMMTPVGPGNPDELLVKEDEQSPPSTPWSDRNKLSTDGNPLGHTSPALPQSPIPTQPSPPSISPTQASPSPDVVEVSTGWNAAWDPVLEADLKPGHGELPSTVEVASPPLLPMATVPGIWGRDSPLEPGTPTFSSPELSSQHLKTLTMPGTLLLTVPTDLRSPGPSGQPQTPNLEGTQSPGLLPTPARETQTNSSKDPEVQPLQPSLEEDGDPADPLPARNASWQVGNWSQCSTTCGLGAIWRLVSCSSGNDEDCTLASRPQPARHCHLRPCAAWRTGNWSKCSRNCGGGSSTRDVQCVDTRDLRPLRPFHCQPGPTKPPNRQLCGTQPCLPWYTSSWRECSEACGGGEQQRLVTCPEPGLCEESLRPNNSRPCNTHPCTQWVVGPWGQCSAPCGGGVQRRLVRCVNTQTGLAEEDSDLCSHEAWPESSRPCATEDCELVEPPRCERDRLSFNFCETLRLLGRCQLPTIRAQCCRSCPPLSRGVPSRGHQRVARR
Outline: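 Full-length mouse ADAMTS7 (WT or E373Q mutant, C-terminal 3xFLAG) or luciferase was transduced via adenovirus, 50 MOI, into HCA-SMC (SMC1, SMC2) or HUVEC. SMC1: pooled media, technical triplicates 400 ug; SMC2: process triplicates 300 ug; HUVEC: process triplicates 200 ug, bFGF2 10 ng/ml.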

Row | logFC.mEQ.over.Luc | Substance
1 | 0.09 | ECM1_108 (QEAVPLQK; listed as Homo sapiens)
2 | −0.11 | EFEMP1_125_ (VAGPEMQTGR; listed as Homo sapiens)
3 | 0.64 | ERAP2_718 (ISENLKR; listed as Homo sapiens)
4 | −0.05 | EWSR1_87 (YSQPVQGYGTGAY; listed as Homo sapiens)
5 | −0.06 | FN1_34 ([code q]QMVQPQSPVAVSQSKPGCY; not fully specified (residue 3); listed as Homo sapiens)
6 | −0.27 | FN1_35 ([code q]MVQPQSPVAVSQSKPGCY; not fully specified (residue 2); listed as Homo sapiens)
7 | −0.29 | FN1_293 (VYQPQPHPQPPPYGHCVT; listed as Homo sapiens)
8 | −0.19 | FN1_1144 (TPGVEYVYTIQVLR; listed as Homo sapiens)
9 | −0.47 | FN1_1780 (LQGLRPGSEYTVSVVALH; listed as Homo sapiens)
10 | 0.05 | FN1_1805 (LIGTQSTAIPAPT; listed as Homo sapiens)
11 | −0.62 | FN1_2113 (FVTHPGY; listed as Homo sapiens)
12 | −0.24 | FSTL1_290 (LQKHQETA; listed as Homo sapiens)
13 | 0.24 | LOX_125 (FQAGYSTSR; listed as Homo sapiens)

Row | Substance | logFC.mEQ.over.Luc
14 | FN1_607 (SSSGPVEVFIT; listed as Homo sapiens) | −0.40

From patent publication US20240368668A1, “SUBSTRATES AND BIOMARKERS OF ADAMTS7” (The Broad Institute, Inc., priority 2021, published 2024)
